This passage reports cytolytic activity on human red blood cells, percent of native PLY activity (% native PLY activity) results from publication PMC4585913, “Crystal structure of Streptococcus pneumoniae pneumolysin provides key insights into early steps of pore formation” (Scientific Reports, 2015).

The assay concerns the target PLY R208A (Streptococcus pneumoniae) (UniProt P0C2J9).

As for “PLY R208A (from UniProt P0C2J9 2-470) (natural protein)”, the cytolytic activity on human red blood cells, percent of native PLY activity (% native PLY activity) worked out at 2.5.
